Measurements: US20260286413A1, “HYALURONAN SYNTHESIS, SECRETION AND LENGTH CONTROL” (UNIVERSITY OF VIRGINIA, priority 2023, published 2026)

Assays:
X1HAS1 [1] = experiment: Substrate turnover rate quantification (UDP release, enzyme-coupled assay); type: biochemical, Xenopus laevis; conditions: UDP release
Method: UDP release during HA synthesis was quantified using an enzyme-coupled assay as previously described (10, 13). Depletion of NADH was monitored at 340 nm every 60 s for 3 hours at 37° C. in a SpectraMax instrument. The raw data was processed in MS Excel and a linear phase of each reaction was determined. The rate of NADH depletion was converted to pmoles of UDP released using a UDP standardized plot (FIG. S1C) for Michaelis-Menten constant determination using GraphPad Prism. For substrate turnover rate quantification of X1HAS1 mutants, pmoles of released UDP were converted to the number of corresponding substrate turnovers per molecule of X1HAS1, per minute. Data is presented relative to wild type activity. All experiments were performed in four to eight replicates and error bars represent standard deviation from the means.
HAS transfers the UDP-activated glycosyl unit (the donor sugar) to the non-reducing end of the nascent HA polymer (the acceptor sugar). This reaction generates UDP and elongated HA as reaction products (FIG. 1A). Catalytic activity can be assessed by monitoring the release of UDP in an enzyme-coupled reaction, as previously described (10, 13), or quantifying HA, either radiometrically or by dye staining following electrophoresis.

X1HAS1 [2] = experiment: Electrophoretic HA size determination (agarose gel, Stains-all) of in vitro synthesized HA; type: biochemical, Xenopus laevis; conditions: for HA product versus WT: short and long reactions (1 h or 8 h), not distinguished
Method: To assess the size of HA synthesized by X1HAS1, similar reaction conditions were applied to the ones described above. […] […] Controls were carried out by digesting the synthesized polymers with hyaluronidase. Synthesis reactions were mixed with SDS-PAGE loading dye and applied to a 1% agarose gel (Ultra-pure agarose, Invitrogen) casted in an Owl B2 system (ThermoFisher). […] After the run, the gel was equilibrated in 50% ethanol for 1.5 h and subjected to staining in 0.05% Stains-all (Sigma) in 50% ethanol overnight under light-protection. Post-staining background was reduced by soaking the gel in 20% ethanol for 3-7 days in the dark. The migration of the synthesized HA species was compared to HA standards from Streptococcus equi (Sigma), as well as enzymatically generated ladders: HA LoLadder and HA HiLadder (Hyalose).

Row | Molecule | HA product versus WT (X1HAS1 [2]) | other results
1 | R496A: X1HAS1 mutant, Arg496 replaced with Ala (protein, UniProt P13563 1-588, looked up, variant R496A) Hyaluronan synthase 1: MKEKAAETMEIPEGIPKDLEPKHPTLWRIIYYSFGVVLLATITAAYVAEFQVLKHEAILFSLGLYGLAMLLHLMMQSLFAFLEIRRVNKSELPCSFKKTVALTIAGYQENPEYLIKCLESCKYVKYPKDKLKIILVIDGNTEDDAYMMEMFKDVFHGEDVGTYVWKGNYHTVKKPEETNKGSCPEVSKPLNEDEGINMVEELVRNKRCVCIMQQWGGKREVMYTAFQAIGTSVDYVQVCDSDTKLDELATVEMVKVLESNDMYGAVGGDVRILNPYDSFISFMSSLRYWMAFNVERACQSYFDCVSCISGPLGMYRNNILQVFLEAWYRQKFLGTYCTLGDDRHLTNRVLSMGYRTKYTHKSRAFSETPSLYLRWLNQQTRWTKSYFREWLYNAQWWHKHHIWMTYESVVSFIFPFFITATVIRLIYAGTIWNVVWLLLCIQIMSLFKSIYACWLRGNFIMLLMSLYSMLYMTGLLPSKYFALLTLNKTGWGTSGAKKIVGNYMPILPLSIWAAVLCGGVGYSIYMDCQNDWSTPEKQKEMYHLLYGCVGYVMYWVIMAVMYWVWVKRCCRKRSQTVTLVHDIPDMCV | – | substrate turnover / catalytic activity compared to WT (X1HAS1 [1]): abolishes catalytic activity
2 | R496K: X1HAS1 mutant, Arg496 replaced with Lys (protein, UniProt P13563 1-588, looked up, variant R496K) Hyaluronan synthase 1: MKEKAAETMEIPEGIPKDLEPKHPTLWRIIYYSFGVVLLATITAAYVAEFQVLKHEAILFSLGLYGLAMLLHLMMQSLFAFLEIRRVNKSELPCSFKKTVALTIAGYQENPEYLIKCLESCKYVKYPKDKLKIILVIDGNTEDDAYMMEMFKDVFHGEDVGTYVWKGNYHTVKKPEETNKGSCPEVSKPLNEDEGINMVEELVRNKRCVCIMQQWGGKREVMYTAFQAIGTSVDYVQVCDSDTKLDELATVEMVKVLESNDMYGAVGGDVRILNPYDSFISFMSSLRYWMAFNVERACQSYFDCVSCISGPLGMYRNNILQVFLEAWYRQKFLGTYCTLGDDRHLTNRVLSMGYRTKYTHKSRAFSETPSLYLRWLNQQTRWTKSYFREWLYNAQWWHKHHIWMTYESVVSFIFPFFITATVIRLIYAGTIWNVVWLLLCIQIMSLFKSIYACWLRGNFIMLLMSLYSMLYMTGLLPSKYFALLTLNKTGWGTSGKKKIVGNYMPILPLSIWAAVLCGGVGYSIYMDCQNDWSTPEKQKEMYHLLYGCVGYVMYWVIMAVMYWVWVKRCCRKRSQTVTLVHDIPDMCV | – | HA product versus WT, short reaction (X1HAS1 [2]): slightly increased length; HA product versus WT, long reaction (X1HAS1 [2]; 8 h synthesis reaction): greater polydispersity
3 | C307A: X1HAS1 mutant, Cys307 replaced with Ala (protein, UniProt P13563 1-588, looked up, variant C307A) Hyaluronan synthase 1: MKEKAAETMEIPEGIPKDLEPKHPTLWRIIYYSFGVVLLATITAAYVAEFQVLKHEAILFSLGLYGLAMLLHLMMQSLFAFLEIRRVNKSELPCSFKKTVALTIAGYQENPEYLIKCLESCKYVKYPKDKLKIILVIDGNTEDDAYMMEMFKDVFHGEDVGTYVWKGNYHTVKKPEETNKGSCPEVSKPLNEDEGINMVEELVRNKRCVCIMQQWGGKREVMYTAFQAIGTSVDYVQVCDSDTKLDELATVEMVKVLESNDMYGAVGGDVRILNPYDSFISFMSSLRYWMAFNVERACQSYFDCVSAISGPLGMYRNNILQVFLEAWYRQKFLGTYCTLGDDRHLTNRVLSMGYRTKYTHKSRAFSETPSLYLRWLNQQTRWTKSYFREWLYNAQWWHKHHIWMTYESVVSFIFPFFITATVIRLIYAGTIWNVVWLLLCIQIMSLFKSIYACWLRGNFIMLLMSLYSMLYMTGLLPSKYFALLTLNKTGWGTSGRKKIVGNYMPILPLSIWAAVLCGGVGYSIYMDCQNDWSTPEKQKEMYHLLYGCVGYVMYWVIMAVMYWVWVKRCCRKRSQTVTLVHDIPDMCV | low amounts of polydisperse HA | –
4 | C307S: X1HAS1 mutant, Cys307 replaced with Ser (protein, UniProt P13563 1-588, looked up, variant C307S) Hyaluronan synthase 1: MKEKAAETMEIPEGIPKDLEPKHPTLWRIIYYSFGVVLLATITAAYVAEFQVLKHEAILFSLGLYGLAMLLHLMMQSLFAFLEIRRVNKSELPCSFKKTVALTIAGYQENPEYLIKCLESCKYVKYPKDKLKIILVIDGNTEDDAYMMEMFKDVFHGEDVGTYVWKGNYHTVKKPEETNKGSCPEVSKPLNEDEGINMVEELVRNKRCVCIMQQWGGKREVMYTAFQAIGTSVDYVQVCDSDTKLDELATVEMVKVLESNDMYGAVGGDVRILNPYDSFISFMSSLRYWMAFNVERACQSYFDCVSSISGPLGMYRNNILQVFLEAWYRQKFLGTYCTLGDDRHLTNRVLSMGYRTKYTHKSRAFSETPSLYLRWLNQQTRWTKSYFREWLYNAQWWHKHHIWMTYESVVSFIFPFFITATVIRLIYAGTIWNVVWLLLCIQIMSLFKSIYACWLRGNFIMLLMSLYSMLYMTGLLPSKYFALLTLNKTGWGTSGRKKIVGNYMPILPLSIWAAVLCGGVGYSIYMDCQNDWSTPEKQKEMYHLLYGCVGYVMYWVIMAVMYWVWVKRCCRKRSQTVTLVHDIPDMCV | low amounts of polydisperse HA | –
5 | C337S: X1HAS1 mutant, Cys337 replaced with Ser (protein, UniProt P13563 1-588, looked up, variant C337S) Hyaluronan synthase 1: MKEKAAETMEIPEGIPKDLEPKHPTLWRIIYYSFGVVLLATITAAYVAEFQVLKHEAILFSLGLYGLAMLLHLMMQSLFAFLEIRRVNKSELPCSFKKTVALTIAGYQENPEYLIKCLESCKYVKYPKDKLKIILVIDGNTEDDAYMMEMFKDVFHGEDVGTYVWKGNYHTVKKPEETNKGSCPEVSKPLNEDEGINMVEELVRNKRCVCIMQQWGGKREVMYTAFQAIGTSVDYVQVCDSDTKLDELATVEMVKVLESNDMYGAVGGDVRILNPYDSFISFMSSLRYWMAFNVERACQSYFDCVSCISGPLGMYRNNILQVFLEAWYRQKFLGTYSTLGDDRHLTNRVLSMGYRTKYTHKSRAFSETPSLYLRWLNQQTRWTKSYFREWLYNAQWWHKHHIWMTYESVVSFIFPFFITATVIRLIYAGTIWNVVWLLLCIQIMSLFKSIYACWLRGNFIMLLMSLYSMLYMTGLLPSKYFALLTLNKTGWGTSGRKKIVGNYMPILPLSIWAAVLCGGVGYSIYMDCQNDWSTPEKQKEMYHLLYGCVGYVMYWVIMAVMYWVWVKRCCRKRSQTVTLVHDIPDMCV | slight length reduction | –
6 | R381A: X1HAS1 mutant, Arg381 of QxxRW motif replaced with Ala (protein, UniProt P13563 1-588, looked up, variant R381A) Hyaluronan synthase 1: MKEKAAETMEIPEGIPKDLEPKHPTLWRIIYYSFGVVLLATITAAYVAEFQVLKHEAILFSLGLYGLAMLLHLMMQSLFAFLEIRRVNKSELPCSFKKTVALTIAGYQENPEYLIKCLESCKYVKYPKDKLKIILVIDGNTEDDAYMMEMFKDVFHGEDVGTYVWKGNYHTVKKPEETNKGSCPEVSKPLNEDEGINMVEELVRNKRCVCIMQQWGGKREVMYTAFQAIGTSVDYVQVCDSDTKLDELATVEMVKVLESNDMYGAVGGDVRILNPYDSFISFMSSLRYWMAFNVERACQSYFDCVSCISGPLGMYRNNILQVFLEAWYRQKFLGTYCTLGDDRHLTNRVLSMGYRTKYTHKSRAFSETPSLYLRWLNQQTAWTKSYFREWLYNAQWWHKHHIWMTYESVVSFIFPFFITATVIRLIYAGTIWNVVWLLLCIQIMSLFKSIYACWLRGNFIMLLMSLYSMLYMTGLLPSKYFALLTLNKTGWGTSGRKKIVGNYMPILPLSIWAAVLCGGVGYSIYMDCQNDWSTPEKQKEMYHLLYGCVGYVMYWVIMAVMYWVWVKRCCRKRSQTVTLVHDIPDMCV | – | substrate turnover / catalytic activity compared to WT (X1HAS1 [1]): cannot be replaced
7 | R287K: X1HAS1 mutant, Arg287 replaced with Lys (protein, UniProt P13563 1-588, looked up, variant R287K) Hyaluronan synthase 1: MKEKAAETMEIPEGIPKDLEPKHPTLWRIIYYSFGVVLLATITAAYVAEFQVLKHEAILFSLGLYGLAMLLHLMMQSLFAFLEIRRVNKSELPCSFKKTVALTIAGYQENPEYLIKCLESCKYVKYPKDKLKIILVIDGNTEDDAYMMEMFKDVFHGEDVGTYVWKGNYHTVKKPEETNKGSCPEVSKPLNEDEGINMVEELVRNKRCVCIMQQWGGKREVMYTAFQAIGTSVDYVQVCDSDTKLDELATVEMVKVLESNDMYGAVGGDVRILNPYDSFISFMSSLKYWMAFNVERACQSYFDCVSCISGPLGMYRNNILQVFLEAWYRQKFLGTYCTLGDDRHLTNRVLSMGYRTKYTHKSRAFSETPSLYLRWLNQQTRWTKSYFREWLYNAQWWHKHHIWMTYESVVSFIFPFFITATVIRLIYAGTIWNVVWLLLCIQIMSLFKSIYACWLRGNFIMLLMSLYSMLYMTGLLPSKYFALLTLNKTGWGTSGRKKIVGNYMPILPLSIWAAVLCGGVGYSIYMDCQNDWSTPEKQKEMYHLLYGCVGYVMYWVIMAVMYWVWVKRCCRKRSQTVTLVHDIPDMCV | polydisperse | –
8 | R296K: X1HAS1 mutant, Arg296 replaced with Lys (protein, UniProt P13563 1-588, looked up, variant R296K) Hyaluronan synthase 1: MKEKAAETMEIPEGIPKDLEPKHPTLWRIIYYSFGVVLLATITAAYVAEFQVLKHEAILFSLGLYGLAMLLHLMMQSLFAFLEIRRVNKSELPCSFKKTVALTIAGYQENPEYLIKCLESCKYVKYPKDKLKIILVIDGNTEDDAYMMEMFKDVFHGEDVGTYVWKGNYHTVKKPEETNKGSCPEVSKPLNEDEGINMVEELVRNKRCVCIMQQWGGKREVMYTAFQAIGTSVDYVQVCDSDTKLDELATVEMVKVLESNDMYGAVGGDVRILNPYDSFISFMSSLRYWMAFNVEKACQSYFDCVSCISGPLGMYRNNILQVFLEAWYRQKFLGTYCTLGDDRHLTNRVLSMGYRTKYTHKSRAFSETPSLYLRWLNQQTRWTKSYFREWLYNAQWWHKHHIWMTYESVVSFIFPFFITATVIRLIYAGTIWNVVWLLLCIQIMSLFKSIYACWLRGNFIMLLMSLYSMLYMTGLLPSKYFALLTLNKTGWGTSGRKKIVGNYMPILPLSIWAAVLCGGVGYSIYMDCQNDWSTPEKQKEMYHLLYGCVGYVMYWVIMAVMYWVWVKRCCRKRSQTVTLVHDIPDMCV | low molecular weight | –
